From EP4755393A1, “USE OF PROTON PUMP REGULATOR IN PREPARATION OF DRUG” (Shanghai Quietd Biotechnology Co., Ltd., priority 2023, dated 2025)
Ends that are not written are not given here.

How the values were obtained:
[1] = tested on: Male SD rats; test: Neurological function scoring after MCAO (Middle Cerebral Artery Occlusion); type: in vivo; conditions: 5 mpk, from 3 days prior to surgery once daily plus doses on day of surgery; 24 h after MCAO; vs Model + QD202 placebo; FIG. 16
Text: (§1) Experimental protocol: Male SD rats (260-280 g) were randomly assigned to the following groups: Sham + QD202 placebo group (n=6), Model + QD202 placebo group (n=6), positive control group (Edaravone-5 mpk, n=6), QD202-1 mpk group (n=6), QD202-3 mpk group (n=6), QD202-5 mpk group (n=6). The sham group served as the sham-operated group, while rats in the model group were subjected to Middle Cerebral Artery Occlusion (MCAO) for model establishment. For the edaravone-treated group, administration was initiated 3 days prior to surgery, once daily; on the day of surgery, a total of […] were given (30 min before surgery, 30 min after surgery, and 60 min after surgery). Rats in the QD202 groups received a single dose at 30 min after surgery. At 24 h postoperatively, neurological function was scored according to Table 3. Subsequently, the whole brain tissues of the rats were harvested for TTC staining to evaluate the infarct volume. […]

[2] = tested on: Male SD rats; test: TTC staining of infarct volume after MCAO; type: in vivo; conditions: 5 mpk, from 3 days prior to surgery once daily plus doses on day of surgery, 24 h after MCAO, vs Model + QD202 placebo, FIG. 17
Text: as §1

[3] = tested on: HT22 cells; test: Quantitative detection of ROS (DCFH-DA) in the oxygen-glucose deprivation (OGD) cell model; type: cell-based; conditions: Mus musculus, HT-22, OGD 16 h, 24 h reoxygenation, OGD plus vehicle = 100%, mean ± standard deviation, read-out: inhibition rate of ROS
Protocol: Cell culture: Mouse hippocampal HT22 cells were cultured in DMEM and 10% serum at 37°C in a 5% CO2 incubator.
Oxygen-glucose deprivation (OGD) cell model: HT22 cells were seeded at a density of about 1 ×10^5 into 96-well plates and cultured for 24 h in a 37°C incubator with 5% CO2/95% air in DMEM and 10% serum. After placing HT22 cells in glucose-free medium, they were transferred to a sealed container containing a 5% CO2/95% N2 mixture and incubated at 37°C for 16 h. The glucose-free medium was then replaced with a normal medium containing glucose, and the mixture was incubated for 24 h in a 37°C incubator containing 5% CO2/95% air for reoxygenation.
Experimental grouping: Normally cultured HT22 cells were used as the control group. […] After 24 h of reoxygenation, quantitative detection of ROS was performed.
Quantitative detection of ROS: Reactive oxygen species were detected using the Beyotime reactive oxygen species detection kit and the fluorescent probe DCFH-DA. […] Observation was performed under a fluorescence microscope, followed by quantification of the average fluorescence intensity using Image J software.
Data analysis: Three parallel experiments were performed. The average fluorescence intensity of the OGD plus vehicle group was set as the standard value of 100% for normalization of the fluorescence intensity of cells in each group. […]

[4] = molecular target: hATP6V1B2 (Homo sapiens, UniProt P21281); test: Co-immunoprecipitation of Myc-tagged hATP6V1B2 with GFP-tagged QD202 and site mutants (HEK 293 lysates, western blot); type: binding; conditions: expressed from pEGFP-N3 plasmids in HEK 293, anti-GFP IP, FIG. 7A, 7B
Protocol: Expression plasmids of hATP6V1B2, QD202, site-mutated QD202(D15A), site-mutated QD202(V16A), site-mutated QD202(P13A), and site-mutated QD202(V14A) were constructed respectively. The hATP6V1B2 was co-transfected into HEK 293 cells with the expression plasmids of QD202, site-mutated QD202(D15A), site-mutated QD202(V16A), site-mutated QD202(P13A) and site-mutated QD202(V14A), respectively, and cellular proteins were extracted 48 h after transfection. Table 1: Plasmid sequences
Protein extraction was performed using Pierce RIPA lysis buffer. Taking cells in a 60 mm culture dish as an example, 500 µL of Pierce RIPA lysis buffer containing protease inhibitors was added. Cells were collected and transferred to a clean 1.5 mL EP tube using a cell scraper. After mixing for 1 h on a rotary mixer at 4°C, the cells were centrifuged at 13,000 rpm at 4°C for 10 min to remove cell debris. The hATP6V1B2 was equally divided into […], which were then mixed separately with the cell lysates transfected with QD202, site-mutated QD202(P13A), site-mutated QD202(V14A), site-mutated QD202(D15A), and site-mutated QD202(V16A), 30 µL of the supernatant was taken and mixed with 10 µL of 4× loading buffer, followed by boiling at 100°C for 5 min and storage at -20°C; 2 µL of the antibody (Anti-GFP, Roche, 11814460001) was added to the remaining 470 µL of the protein lysate, and the mixture was incubated overnight (about 16-18 h) on a rotary shaker at 4°C. 30 µL of Protein G Sepharose beads (Roche, 11243233001) were placed in an EP tube and washed three times with Pierce RIPA lysis buffer to eliminate interference from the original stock solution. The protein that had been incubated with the antibody overnight was added to the Sepharose beads, followed by mixing and incubation at 4°C for 2 h to ensure sufficient binding between the antibody and the protein. The mixture was centrifuged at 4000 rpm for 1 min. The supernatant was aspirated off, followed by the addition of 600 µL of Pierce RIPA lysis buffer. The tube was gently inverted, followed by centrifugation to collect the supernatant. The above steps were repeated three times to wash away non-specifically bound proteins. Finally, 30 µL of 1×loading buffer was added, the mixture was mixed well, heated at 60°C for 20 min to denature the protein, and then stored at -20°C. The protein was examined by western blot (Myc-Tag (9B11) Mouse mAb, CST, 2276S; Anti-GFP, Roche, 11814460001).
The hATP6V1B2 was co-transfected into the host cell line HEK 293 with the expression plasmids of QD202, site-mutated QD202(P13A), site-mutated QD202(V14A), site-mutated QD202(D15A) and site-mutated QD202(V16A), respectively. […] It is therefore hypothesized that valine at position 16 of QD202 is one of the key amino acids for the binding between hATP6V1B2 and QD202, whereas proline at position 13, valine at position 14 and aspartic acid at position 15 can be replaced with alanine, as illustrated in FIG. 7A and FIG. 7B.

hATP6V1B2, sequence (P21281 whole entry): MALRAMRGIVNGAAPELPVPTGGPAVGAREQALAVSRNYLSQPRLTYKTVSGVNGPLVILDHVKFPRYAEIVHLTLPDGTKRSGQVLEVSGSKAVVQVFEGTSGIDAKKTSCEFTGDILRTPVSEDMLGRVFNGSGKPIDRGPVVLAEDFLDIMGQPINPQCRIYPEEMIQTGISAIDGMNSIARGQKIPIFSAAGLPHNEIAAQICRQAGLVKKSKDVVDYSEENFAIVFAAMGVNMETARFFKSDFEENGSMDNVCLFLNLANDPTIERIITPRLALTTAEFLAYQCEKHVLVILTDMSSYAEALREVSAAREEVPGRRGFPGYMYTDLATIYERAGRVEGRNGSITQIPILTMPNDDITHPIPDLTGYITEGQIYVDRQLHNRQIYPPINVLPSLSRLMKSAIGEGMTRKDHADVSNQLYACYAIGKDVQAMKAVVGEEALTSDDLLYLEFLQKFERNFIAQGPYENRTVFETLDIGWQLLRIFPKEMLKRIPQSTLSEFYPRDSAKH

Compound | neurobehavioral score [1] | infarct volume [2] | inhibition at 200 µM [3] [%] | binding to Myc-tagged hATP6V1B2 (co-immunoprecipitation) [4]
CC1=NN(c2ccccc2)C(=O)C1 [Edaravone] | significantly lower than that of the Model + QD202 placebo group with a statistically significant difference (p<0.01) | significantly lower than that of the Model + QD202 placebo group, with a statistically significant difference (p<0.01) | 63.8 ± 10.9 | 
QD202(D15A): QD202 in which aspartic acid at position 15 was substituted with alanine; expressed from pEGFP-N3 plasmid (YGRKKRRQRRRSPVAVVCS; left off: large carriers) |  |  |  | also bind to
QD202(P13A): QD202 in which proline at position 13 was substituted with alanine; expressed from pEGFP-N3 plasmid (YGRKKRRQRRRSAVDVVCS; not fully specified) |  |  |  | also bind to
QD202(V14A): QD202 in which valine at position 14 was substituted with alanine; expressed from pEGFP-N3 plasmid (YGRKKRRQRRRSPADVVCS; not fully specified) |  |  |  | also bind to
QD202(V16A): QD202 in which valine at position 16 was substituted with alanine; expressed from pEGFP-N3 plasmid (YGRKKRRQRRRSPVDAVCS; not fully specified) |  |  |  | significantly reduced
